Data taken from FireProtDB (doi:10.1093/protein/12.10.841).

Settings: Homo sapiens; pH 2.7; Thermal; DSC; glycine 0.05 M; reversible: yes; whole UniProt chain shown

B1: Lysozyme C wild type, P61626 (protein)
chain: MKALIVLGLVLLSVTVQGKVFERCELARTLKRLGMDGYRGISLANWMCLAKWESGYNTRATNYNAGDRSTDYGIFQINSRYWCNDGKTPGAVNACHLSCSALLQDNIADAVACAKRVVRDPQGIRAWVAWRNRCQNRDVRQYVQGCGV
- Tm: 64.9 °C
- heat capacity change of unfolding: 1.58 kcal/mol/K
- unfolding enthalpy (calorimetric): 114 kcal/mol
- unfolding enthalpy (van 't Hoff): 120 kcal/mol
